Results reported in the supplement of paper PMC9112550, “Optimization of the antimicrobial peptide Bac7 by deep mutational scanning” (BMC Biology, 2022).

Tested on: Escherichia coli TOP10
Assay: shrunken log2 fold change of peptide-encoding DNA abundance (4.5 h post-induction vs induction); higher = less antimicrobial activity (less host growth inhibition)
Conditions: time post-induction: 4.5 h; library: site-saturation at positions 5, 18, 19, 20
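Further: peptides expressed intracellularly from a pBAD plasmid library in pooled LB shake-flask culture, induced with 0.3% L-arabinose, DNA abundance read by NGS, three biological replicates, DESeq2 with apeglm shrinkage.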

Row | Sequence | shrunken log2 fold change
1 | RRIRERPPRLPRPRPRPHIDPRP | -0.34
2 | RRIRARPPRLPRPRPRPRLHPRP | 0.376
3 | RRIRMRPPRLPRPRPRPTTNPRP | 0.403
4 | RRIRNRPPRLPRPRPRPRALPRP | 0.117
5 | RRIRARPPRLPRPRPRPAEWPRP | 0.245
6 | RRIRYRPPRLPRPRPRPGFCPRP | -0.266
7 | RRIRCRPPRLPRPRPRPERNPRP | -0.223
8 | RRIRPRPPRLPRPRPRPCNIPRP | -0.554
9 | RRIRVRPPRLPRPRPRPCFFPRP | -0.137
10 | RRIRFRPPRLPRPRPRPCPTPRP | -0.0449
11 | RRIRNRPPRLPRPRPRPNVMPRP | -0.16
12 | RRIRQRPPRLPRPRPRPSYYPRP | -0.356
13 | RRIRPRPPRLPRPRPRPTISPRP | -0.218
14 | RRIRDRPPRLPRPRPRPWYIPRP | -0.0219
15 | RRIRQRPPRLPRPRPRPAPGPRP | 0.417
16 | RRIRPRPPRLPRPRPRPVIKPRP | -0.215
17 | RRIRMRPPRLPRPRPRPNQFPRP | -0.0124
18 | RRIRGRPPRLPRPRPRPSHQPRP | -0.0609
19 | RRIRCRPPRLPRPRPRPKFGPRP | 0.231
20 | RRIRARPPRLPRPRPRPKYCPRP | -0.464
21 | RRIRYRPPRLPRPRPRPYFLPRP | -1.23
22 | RRIRDRPPRLPRPRPRPKDDPRP | 0.0765
23 | RRIRCRPPRLPRPRPRPGMHPRP | -0.0345
24 | RRIRTRPPRLPRPRPRPLKYPRP | -0.641
25 | RRIRQRPPRLPRPRPRPDTIPRP | 0.0406

Row | Sequence | shrunken log2 fold change
26 | RRIRCRPPRLPRPRPRPEYWPRP | -0.0559
27 | RRIRRRPPRLPRPRPRPRDMPRP | 0.186
28 | RRIRPRPPRLPRPRPRPWMEPRP | -0.0134
29 | RRIRARPPRLPRPRPRPCLAPRP | 0.328
30 | RRIRFRPPRLPRPRPRPVFCPRP | -0.0281
31 | RRIRYRPPRLPRPRPRPTMWPRP | 0.0172
32 | RRIRSRPPRLPRPRPRPPEQPRP | 0.306
33 | RRIRLRPPRLPRPRPRPNQGPRP | -0.148
34 | RRIRERPPRLPRPRPRPWMGPRP | 0.299
35 | RRIRVRPPRLPRPRPRPVFHPRP | -0.213
36 | RRIRQRPPRLPRPRPRPLHWPRP | 0.0127
37 | RRIRPRPPRLPRPRPRPMPGPRP | -0.0627
38 | RRIRFRPPRLPRPRPRPTHCPRP | -0.0892
39 | RRIRRRPPRLPRPRPRPTVCPRP | 0.227
40 | RRIRGRPPRLPRPRPRPGCEPRP | 2.03
41 | RRIRIRPPRLPRPRPRPIQSPRP | -0.0915
42 | RRIRRRPPRLPRPRPRPFSSPRP | -0.0604
43 | RRIRCRPPRLPRPRPRPEHRPRP | -0.0739
44 | RRIRERPPRLPRPRPRPTEVPRP | -0.121
45 | RRIRMRPPRLPRPRPRPFWCPRP | 0.314
46 | RRIRTRPPRLPRPRPRPWIPPRP | -0.2
47 | RRIRGRPPRLPRPRPRPGDKPRP | 0.425
48 | RRIRCRPPRLPRPRPRPLTQPRP | 0.189
49 | RRIRWRPPRLPRPRPRPMNHPRP | -0.426
50 | RRIRVRPPRLPRPRPRPEHKPRP | -0.0815

Row | Sequence | shrunken log2 fold change
51 | RRIRIRPPRLPRPRPRPYTYPRP | -0.705
52 | RRIRSRPPRLPRPRPRPQCKPRP | 0.0936
53 | RRIRFRPPRLPRPRPRPPCWPRP | 0.478
54 | RRIRVRPPRLPRPRPRPMAPPRP | 0.0351
55 | RRIRNRPPRLPRPRPRPMTKPRP | 0.116
56 | RRIRKRPPRLPRPRPRPAKKPRP | 1.06
57 | RRIRKRPPRLPRPRPRPHMNPRP | -0.295
58 | RRIRDRPPRLPRPRPRPEIPPRP | -0.0405
59 | RRIRCRPPRLPRPRPRPSELPRP | -0.107
60 | RRIRTRPPRLPRPRPRPWHVPRP | 0.0162
61 | RRIRNRPPRLPRPRPRPNQNPRP | 0.337
62 | RRIRPRPPRLPRPRPRPNNGPRP | -0.335
63 | RRIRHRPPRLPRPRPRPCCLPRP | -0.82
64 | RRIRTRPPRLPRPRPRPPRSPRP | 0.529
65 | RRIRKRPPRLPRPRPRPGRHPRP | 0.227
66 | RRIRYRPPRLPRPRPRPHEHPRP | -0.0681
67 | RRIRSRPPRLPRPRPRPGSIPRP | -0.0732
68 | RRIRGRPPRLPRPRPRPEHWPRP | 0.378
69 | RRIRTRPPRLPRPRPRPRMMPRP | 1.32
70 | RRIRTRPPRLPRPRPRPQYHPRP | -0.329
71 | RRIRTRPPRLPRPRPRPRSVPRP | -0.272
72 | RRIRSRPPRLPRPRPRPYFTPRP | 1.09
73 | RRIRDRPPRLPRPRPRPLYVPRP | -0.17
74 | RRIRARPPRLPRPRPRPIFYPRP | -0.0773
75 | RRIRGRPPRLPRPRPRPIDTPRP | 0.306
